Experimental data taken from patent US20240270821A1, “GIP/GLP1/GCG TRI-RECEPTOR AGONISTS AND USES THEREOF” (priority 2023, published 2024).
Where a chain is given by its changes, count along the chain named.

B1: Example 168 (peptide)
chain: YXQGTFTSDFSXXLDKKAQXAFIEWLLEGGPSSGAPPPSGS
modifications: Aib, Orn, αMeL; acylated K; C-terminal amide; synthetic construct; SITE 2: note = 2-Aminoisobutyric Acid; SITE 12: note = L-ornithine; SITE 13: note = alpha-methyl-leucine; SITE 17: note = Lysine is chemically modified through conjugation of the epsilon-amino group of the Lysine side chain with (2-[2-(2-Amino-ethoxy)-ethoxy]-acetyl)-(gamma-Glu)
B2: Example 181 (peptide)
chain: B1 chain with W25Y, G29X, P31H
modifications: (AEEA)2-γGlu-C18 diacid on Lys; non-natural residues; amide; synthetic construct; SITE 2: note = 2-Aminoisobutyric Acid; SITE 12: note = L-ornithine; SITE 13: note = alpha-methyl-leucine; SITE 17: note = Lysine is chemically modified through conjugation of the epsilon-amino group of the Lysine side chain with (2-[2-(2-Amino-ethoxy)-ethoxy]-acetyl)2-(gamma-Glu)
B3: Example 176 (peptide)
chain: B1 chain with P31T
modifications: Aib, Orn, αMeL; AEEA-γGlu-C18 diacid Lys; C-term amide; synthetic construct; SITE 2: note = 2-Aminoisobutyric Acid; SITE 12: note = L-ornithine; SITE 13: note = alpha-methyl-leucine; SITE 17: note = Lysine is chemically modified through conjugation of the epsilon-amino group of the Lysine side chain with (2-[2-(2-Amino-ethoxy)-ethoxy]-acetyl)-(gamma-Glu)
B4: Example 173 (peptide)
chain: B1 chain with P31S
modifications: non-natural residues; lipidated Lys AEEA-γGlu-C18 diacid; C-term amide; synthetic construct; SITE 2: note = 2-Aminoisobutyric Acid; SITE 12: note = L-ornithine; SITE 13: note = alpha-methyl-leucine; SITE 17: note = Lysine is chemically modified through conjugation of the epsilon-amino group of the Lysine side chain with (2-[2-(2-Amino-ethoxy)-ethoxy]-acetyl)-(gamma-Glu)
B5: Example 175 (peptide)
chain: B1 chain with P31T, S41E
modifications: Aib, Orn, αMeL; acylated Lys C18 diacid; C-term amide; synthetic construct; SITE 2: note = 2-Aminoisobutyric Acid; SITE 12: note = L-ornithine; SITE 13: note = alpha-methyl-leucine; SITE 17: note = Lysine is chemically modified through conjugation of the epsilon-amino group of the Lysine side chain with (2-[2-(2-Amino-ethoxy)-ethoxy]-acetyl)-(gamma-Glu)
B6: Example 177 (peptide)
chain: B1 chain with P31T, S41T
modifications: non-natural residues, AEEA-γGlu-C18 diacid acylation, C-terminal amide; synthetic construct; SITE 2: note = 2-Aminoisobutyric Acid; SITE 12: note = L-ornithine; SITE 13: note = alpha-methyl-leucine; SITE 17: note = Lysine is chemically modified through conjugation of the epsilon-amino group of the Lysine side chain with (2-[2-(2-Amino-ethoxy)-ethoxy]-acetyl)-(gamma-Glu)
B7: Example 166 (peptide)
chain: B1 chain with W25Y, G29X, A35E
modifications: Aib, Orn, αMeL, acylated K, C-terminal amide; synthetic construct; SITE 2: note = 2-Aminoisobutyric Acid; SITE 12: note = L-ornithine; SITE 13: note = alpha-methyl-leucine; SITE 17: note = Lysine is chemically modified through conjugation of the epsilon-amino group of the Lysine side chain with (2-[2-(2-Amino-ethoxy)-ethoxy]-acetyl)2-(gamma-Glu)
B8: Example 164 (peptide)
chain: B1 chain with W25Y, P31H, A35E, S39G
modifications: non-natural residues; lipidated Lys AEEA-γGlu-C18 diacid; C-term amide; synthetic construct; SITE 2: note = 2-Aminoisobutyric Acid; SITE 12: note = L-ornithine; SITE 13: note = alpha-methyl-leucine; SITE 17: note = Lysine is chemically modified through conjugation of the epsilon-amino group of the Lysine side chain with (2-[2-(2-Amino-ethoxy)-ethoxy]-acetyl)-(gamma-Glu)
B9: Example 171 (peptide)
chain: B1 chain with P31H, S41T
modifications: Aib, Orn, αMeL; K acylated AEEA-γGlu-C18 diacid; C-terminal amide; synthetic construct; SITE 2: note = 2-Aminoisobutyric Acid; SITE 12: note = L-ornithine; SITE 13: note = alpha-methyl-leucine; SITE 17: note = Lysine is chemically modified through conjugation of the epsilon-amino group of the Lysine side chain with (2-[2-(2-Amino-ethoxy)-ethoxy]-acetyl)-(gamma-Glu)

Tests used:
Test in all cases: cell-based or functional assay
[1] = molecular target: human glucagon receptor (human) (UniProt P47871)
[2] = molecular target: human GLP-1R (SNAP-GLP-1R expressed in HEK293 cells) (human) (UniProt P43220)
[3] = molecular target: T1, human GIP receptor (human) (UniProt P48546)
T1 sequence (looked up): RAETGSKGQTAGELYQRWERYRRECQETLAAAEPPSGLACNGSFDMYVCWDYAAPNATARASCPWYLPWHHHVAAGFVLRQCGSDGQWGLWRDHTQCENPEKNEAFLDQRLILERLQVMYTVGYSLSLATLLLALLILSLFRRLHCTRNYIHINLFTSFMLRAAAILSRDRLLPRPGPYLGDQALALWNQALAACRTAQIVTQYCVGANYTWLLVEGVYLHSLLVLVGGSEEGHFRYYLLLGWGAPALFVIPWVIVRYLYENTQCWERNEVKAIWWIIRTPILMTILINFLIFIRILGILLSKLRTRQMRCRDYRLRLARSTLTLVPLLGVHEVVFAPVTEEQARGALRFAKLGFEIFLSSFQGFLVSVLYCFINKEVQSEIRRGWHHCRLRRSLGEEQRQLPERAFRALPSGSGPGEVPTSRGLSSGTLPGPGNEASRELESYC

[4] = molecular target: hGLP-1R (Homo sapiens, UniProt P43220)
hGLP-1R, sequence (P43220 24-463): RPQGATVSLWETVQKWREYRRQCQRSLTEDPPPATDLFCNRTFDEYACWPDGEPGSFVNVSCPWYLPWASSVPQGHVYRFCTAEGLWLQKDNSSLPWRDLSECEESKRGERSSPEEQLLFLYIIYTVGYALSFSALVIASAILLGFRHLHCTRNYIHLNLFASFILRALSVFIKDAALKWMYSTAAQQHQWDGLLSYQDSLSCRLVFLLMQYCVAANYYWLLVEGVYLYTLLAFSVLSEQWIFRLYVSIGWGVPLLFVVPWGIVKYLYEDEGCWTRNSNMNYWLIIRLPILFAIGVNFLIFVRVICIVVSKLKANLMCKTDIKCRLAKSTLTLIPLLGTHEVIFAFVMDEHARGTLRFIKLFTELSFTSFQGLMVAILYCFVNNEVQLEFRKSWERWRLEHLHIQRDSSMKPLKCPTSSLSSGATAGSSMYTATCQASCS

human glucagon receptor (human), sequence (P47871 26-477): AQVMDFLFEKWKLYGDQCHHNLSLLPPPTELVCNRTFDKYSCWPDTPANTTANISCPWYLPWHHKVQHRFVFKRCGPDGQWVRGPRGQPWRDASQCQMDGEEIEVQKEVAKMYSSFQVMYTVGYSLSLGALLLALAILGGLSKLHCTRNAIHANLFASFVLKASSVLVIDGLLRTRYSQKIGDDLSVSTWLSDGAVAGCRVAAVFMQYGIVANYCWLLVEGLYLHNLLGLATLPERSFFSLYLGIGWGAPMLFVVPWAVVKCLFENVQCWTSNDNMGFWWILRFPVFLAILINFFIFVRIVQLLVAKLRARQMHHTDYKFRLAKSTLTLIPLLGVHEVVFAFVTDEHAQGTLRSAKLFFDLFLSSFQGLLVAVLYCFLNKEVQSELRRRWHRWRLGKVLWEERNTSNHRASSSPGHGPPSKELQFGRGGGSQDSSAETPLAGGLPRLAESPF
human GLP-1R (SNAP-GLP-1R expressed in HEK293 cells) (human), sequence (P43220 24-463): as the sequence (P43220 24-463) above

| Binder | Relative cAMP EC50, nM (0.1% casein) [1] | cAMP Rel EC50, nM (1% HSA) [1] | GLP1R Internalization EC50 [2] | Internalization % TOP [2] | Relative cAMP EC50, nM (0.1% casein) [3] | cAMP Rel EC50, nM (1% HSA) [3] | Relative cAMP EC50, nM (0.1% casein) [4] | cAMP Rel EC50, nM (1% HSA) [4] |
| --- | --- | --- | --- | --- | --- | --- | --- | --- |
| B1 | 5.54 nM | 1270 nM | 74.8 nM | 38.7% | 0.233 nM | 31.9 nM | 2.44 nM | 281 nM |
| B2 | 6.25 nM | 772 nM | 116 nM | 47.5% | 0.133 nM | 12.7 nM | 4.39 nM | 365 nM |
| B3 | 4.1 nM | 461 nM | 103 nM | 48% | 0.212 nM | 40.7 nM | 2.92 nM | 389 nM |
| B4 | 3.6 nM | 745 nM | 97.1 nM | 38.6% | 0.168 nM | 49.9 nM | 2.32 nM | 293 nM |
| B5 | 4.92 nM | 579 nM | 116 nM | 49.2% | 0.218 nM | 29.6 nM | 4 nM | 386 nM |
| B6 | 4.22 nM | 758 nM | 79.4 nM | 44% | 0.213 nM | 34.8 nM | 2.97 nM | 483 nM |
| B7 | 3.82 nM | 724 nM | 74.6 nM | 44.2% | 0.118 nM | 21 nM | 6.96 nM | 1500 nM |
| B8 | 2.92 nM | 411 nM | 45.9 nM | 46.5% | 0.302 nM | 59 nM | 5.02 nM | 962 nM |
| B9 | 3.86 nM | 502 nM | 61.4 nM | 36.1% | 0.2 nM | 27.1 nM | 2.89 nM | 287 nM |
